Data set [1] has as its system HeLa Kyoto. As to the kind of experiment: solubility in G1/S (NP-40 vs SDS abundance) (log2 ratio); higher = more soluble. Conditions: cell cycle stage: G1/S.
Data set [2] has as its system HeLa Kyoto. As to the kind of experiment: melting temperature (median over replicates), in situ; higher = more thermally stable.
Data set [3] deals with HeLa Kyoto. The data set is described as follows: solubility change mitosis vs G1/S (difference of NP-40 vs SDS log2 ratios) (log2 ratio difference); higher = more soluble in mitosis.
In data set [4] the test system is HeLa Kyoto. As to the kind of experiment: thermal stability score vs G1/S (z-score of summed log2 fold changes over temperatures); higher = more thermally stable than in G1/S.
[5] abbreviates: cell cycle stage: early G1 (4.5 h after nocodazole release).
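Wherever melting temperature (median over replicates), in situ is given: HeLa Kyoto cells synchronized by double thymidine or nocodazole block, proteins quantified by TMT10plex mass spectrometry, three independent biological replicates.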
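Wherever solubility change mitosis vs G1/S (difference of NP-40 vs SDS log2 ratios) is given: synchronized HeLa Kyoto cells (double thymidine block for G1/S, nocodazole release for mitosis), protein amounts in NP-40 versus SDS lysates quantified by mass spectrometry, three biological replicates.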
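Wherever solubility in G1/S (NP-40 vs SDS abundance) is given: HeLa Kyoto cells arrested at G1/S by double thymidine block, proteins quantified by TMT10plex mass spectrometry in mild NP-40 versus SDS extracts, three biological replicates.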
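Wherever thermal stability score vs G1/S (z-score of summed log2 fold changes over temperatures) is given: synchronized HeLa Kyoto cells, proteins quantified by TMT10plex mass spectrometry, three biological replicates, mitosis taken 0.5 h after nocodazole release, G1/S directly after double thymidine block.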

As to “MAGAQPGVHALQLEPPTVVETLRRGSKFIKWDEETSSRNLVTLRVDPNGFFLYWTGPNMEVDTLDISSIRDTRTGRYARLPKDPKIREVLGFGGPDARLEEKLMTVVSGPDPVNTVFLNFMAVQDDTAKVWSEELFKLAMNILAQNASRNTFLRKAYTKLKLQVNQDGRIPVKNILKMFSADKKRVETALESCGLKFNRSESIRPDEFSLEIFERFLNKLCLRPDIDKILLEIGAKGKPYLTLEQLMDFINQKQRDPRLNEVLYPPLRPSQARLLIEKYEPNQQFLERDQMSMEGFSRYLGGEENGILPLEALDLSTDMTQPLSAYFINSSHNTYLTAGQLAGTSSVEMYRQALLWGCRCVELDVWKGRPPEEEPFITHGFTMTTEVPLRDVLEAIAETAFKTSPYPVILSFENHVDSAKQQAKMAEYCRSIFGDALLIEPLDKYPLAPGVPLPSPQDLMGRILVKNKKRHRPSAGGPDSAGRKRPLEQSNSALSESSAATEPSSPQLGSPSSDSCPGLSNGEEVGLEKPSLEPQKSLGDEGLNRGPYVLGPADREDEEEDEEEEEQTDPKKPTTDEGTASSEVNATEEMSTLVNYIEPVKFKSFEAARKRNKCFEMSSFVETKAMEQLTKSPMEFVEYNKQQLSRIYPKGTRVDSSNYMPQLFWNVGCQLVALNFQTLDVAMQLNAGVFEYNGRSGYLLKPEFMRRPDKSFDPFTEVIVDGIVANALRVKVISGQFLSDRKVGIYVEVDMFGLPVDTRRKYRTRTSQGNSFNPVWDEEPFDFPKVVLPTLASLRIAAFEEGGKFVGHRILPVSAIRSGYHYVCLRNEANQPLCLPALLIYTEASDYIPDDHQDYAEALINPIKHVSLMDQRARQLAALIGESEAQAGQETCQDTQSQQLGSQPSSNPTPSPLDASPRRPPGPTTSPASTSLSSPGQRDDLIASILSEVAPTPLDELRGHKALVKLRSRQERDLRELRKKHQRKAVTLTRRLLDGLAQAQAEGRCRLRPGALGGAADVEDTKEGEDEAKRYQEFQNRQVQSLLELREAQVDAEAQRRLEHLRQALQRLREVVLDANTTQFKRLKEMNEREKKELQKILDRKRHNSISEAKMRDKHKKEAELTEINRRHITESVNSIRRLEEAQKQRHDRLVAGQQQVLQQLAEEEPKLLAQLAQECQEQRARLPQEIRRSLLGEMPEGLGDGPLVACASNGHAPGSSGHLSGADSESQEENTQL [PLCB3]”, the “solubility in G1/S (log2)” value in the data set with HeLa Kyoto [1] amounted to 0.0201. The melting temperature worked out at 52.7 °C in the data set on HeLa Kyoto [2] (cell cycle stage: G1/S) and 51.7 °C in the data set with HeLa Kyoto [2] (cell cycle stage: mitosis). Further, the “solubility change mitosis (log2)” value in the data set with HeLa Kyoto [3] came out at 0.0123. In addition, the thermal stability score in the data set on HeLa Kyoto [4] (setting [5]) is 0.256; with HeLa Kyoto [4] (cell cycle stage: mitosis), -0.25.
Turning to “MAGDVGGRSCTDSELLLHPELLSQEFLLLTLEQKNIAVETDVRVNKDSLTDLYVQHAIPLPQRDLPKNRWGKMMEKKREQHEIKNETKRSSTVDGLRKRPLIVFDGSSTSTSIKVKKTENGDNDRLKPPPQASFTSNAFRKLSNSSSSVSPLILSSNLPVNNKTEHNNNDAKQNHDLTHRKSPSGPVKSPPLSPVGTTPVKLKRAAPKEEAEAMNNLKPPQAKRKIQHVTWP [C2ORF49]”, the “solubility in G1/S (log2)” value in the data set with HeLa Kyoto [1] is 0.348. The melting temperature came to 50.3 °C in the data set with HeLa Kyoto [2] (cell cycle stage: G1/S) and 51.3 °C in the data set with HeLa Kyoto [2] (cell cycle stage: mitosis). In addition, in the data set on HeLa Kyoto [3], the “solubility change mitosis (log2)” value was 0.015. In addition, the thermal stability score is -1.3 in the data set on HeLa Kyoto [4] (setting [5]) and -1.02 in the data set on HeLa Kyoto [4] (cell cycle stage: mitosis).
As for “MAGELADKKDRDASPSKEERKRSRTPDRERDRDRDRKSSPSKDRKRHRSRDRRRGGSRSRSRSRSKSAERERRHKERERDKERDRNKKDRDRDKDGHRRDKDRKRSSLSPGRGKDFKSRKDRDSKKDEEDEHGDKKPKAQPLSLEELLAKKKAEEEAEAKPKFLSKAEREAEALKRRQQEVEERQRMLEEERKKRKQFQDLGRKMLEDPQERERRERRERMERETNGNEDEEGRQKIREEKDKSKELHAIKERYLGGIKKRRRTRHLNDRKFVFEWDASEDTSIDYNPLYKERHQVQLLGRGFIAGIDLKQQKREQSRFYGDLMEKRRTLEEKEQEEARLRKLRKKEAKQRWDDRHWSQKKLDEMTDRDWRIFREDYSITTKGGKIPNPIRSWKDSSLPPHILEVIDKCGYKEPTPIQRQAIPIGLQNRDIIGVAETGSGKTAAFLIPLLVWITTLPKIDRIEESDQGPYAIILAPTRELAQQIEEETIKFGKPLGIRTVAVIGGISREDQGFRLRMGCEIVIATPGRLIDVLENRYLVLSRCTYVVLDEADRMIDMGFEPDVQKILEHMPVSNQKPDTDEAEDPEKMLANFESGKHKYRQTVMFTATMPPAVERLARSYLRRPAVVYIGSAGKPHERVEQKVFLMSESEKRKKLLAILEQGFDPPIIIFVNQKKGCDVLAKSLEKMGYNACTLHGGKGQEQREFALSNLKAGAKDILVATDVAGRGIDIQDVSMVVNYDMAKNIEDYIHRIGRTGRAGKSGVAITFLTKEDSAVFYELKQAILESPVSSCPPELANHPDAQHKPGTILTKKRREETIFA [DDX23]”, the “solubility in G1/S (log2)” value in the data set on HeLa Kyoto [1] was -1.02. Moreover, the melting temperature with HeLa Kyoto [2] (cell cycle stage: G1/S) was 48.8 °C; with HeLa Kyoto [2] (cell cycle stage: mitosis), 50.4 °C. The “solubility change mitosis (log2)” value with HeLa Kyoto [3] amounted to 0.24. Further, the values for the thermal stability score in the data set with HeLa Kyoto [4] (setting [5]) and in the data set with HeLa Kyoto [4] (cell cycle stage: mitosis) were 1.14 and 3.64, respectively.
Turning to “MAGGAREVLTLQLGHFAGFVGAHWWNQQDAALGRATDSKEPPGELCPDVLYRTGRTLHGQETYTPRLILMDLKGSLSSLKEEGGLYRDKQLDAAIAWQGKLTTHKEELYPKNPYLQDFLSAEGVLSSDGVWRVKSIPNGKGSSPLPTATTPKPLIPTEASIRVWSDFLRVHLHPRSICMIQKYNHDGEAGRLEAFGQGESVLKEPKYQEELEDRLHFYVEECDYLQGFQILCDLHDGFSGVGAKAAELLQDEYSGRGIITWGLLPGPYHRGEAQRNIYRLLNTAFGLVHLTAHSSLVCPLSLGGSLGLRPEPPVSFPYLHYDATLPFHCSAILATALDTVTVPYRLCSSPVSMVHLADMLSFCGKKVVTAGAIIPFPLAPGQSLPDSLMQFGGATPWTPLSACGEPSGTRCFAQSVVLRGIDRACHTSQLTPGTPPPSALHACTTGEEILAQYLQQQQPGVMSSSHLLLTPCRVAPPYPHLFSSCSPPGMVLDGSPKGAAVESIPVFGALCSSSSLHQTLEALARDLTKLDLRRWASFMDAGVEHDDVAELLQELQSLAQCYQGGDSLVD [MSTO1]”, the “solubility in G1/S (log2)” value in the data set with HeLa Kyoto [1] came to 0.162. Besides, the melting temperature in the data set with HeLa Kyoto [2] (cell cycle stage: G1/S) worked out at 51.2 °C; in the data set with HeLa Kyoto [2] (cell cycle stage: mitosis), 51.1 °C. The “solubility change mitosis (log2)” value in the data set on HeLa Kyoto [3] was -0.0764. The figures for the thermal stability score in the data set with HeLa Kyoto [4] (setting [5]) and in the data set with HeLa Kyoto [4] (cell cycle stage: mitosis) were 0.792 and 0.318, respectively.
With “MAGGMKVAVSPAVGPGPWGSGVGGGGTVRLLLILSGCLVYGTAETDVNVVMLQESQVCEKRASQQFCYTNVLIPKWHDIWTRIQIRVNSSRLVRVTQVENEEKLKELEQFSIWNFFSSFLKEKLNDTYVNVGLYSTKTCLKVEIIEKDTKYSVIVIRRFDPKLFLVFLLGLMLFFCGDLLSRSQIFYYSTGMTVGIVASLLIIIFILSKFMPKKSPIYVILVGGWSFSLYLIQLVFKNLQEIWRCYWQYLLSYVLTVGFMSFAVCYKYGPLENERSINLLTWTLQLMGLCFMYSGIQIPHIALAIIIIALCTKNLEHPIQWLYITCRKVCKGAEKPVPPRLLTEEEYRIQGEVETRKALEELREFCNSPDCSAWKTVSRIQSPKRFADFVEGSSHLTPNEVSVHEQEYGLGSIIAQDEIYEEASSEEEDSYSRCPAITQNNFLT [NEMP1]”, the “solubility in G1/S (log2)” value with HeLa Kyoto [1] is 0.0297. The figures for the melting temperature in the data set with HeLa Kyoto [2] (cell cycle stage: G1/S) and in the data set on HeLa Kyoto [2] (cell cycle stage: mitosis) were 53.8 °C and 54.5 °C, respectively. For the same sequence, the “solubility change mitosis (log2)” value with HeLa Kyoto [3] amounted to 0.0939. For the same sequence, the thermal stability score with HeLa Kyoto [4] (setting [5]) is 1.73; with HeLa Kyoto [4] (cell cycle stage: mitosis), 6.13.
